Results reported in patent US20080058263A1 (published 2008).

T1: VEGFR-3-Fc (UniProt P35916 25-328)
T1 construct: domain: first three Ig domains; conditioned supernatant of 293T cells; also called VEGFR-3-Fc fusion protein; not shown: Fc fragment of the pIg vector
T1 sequence (looked up): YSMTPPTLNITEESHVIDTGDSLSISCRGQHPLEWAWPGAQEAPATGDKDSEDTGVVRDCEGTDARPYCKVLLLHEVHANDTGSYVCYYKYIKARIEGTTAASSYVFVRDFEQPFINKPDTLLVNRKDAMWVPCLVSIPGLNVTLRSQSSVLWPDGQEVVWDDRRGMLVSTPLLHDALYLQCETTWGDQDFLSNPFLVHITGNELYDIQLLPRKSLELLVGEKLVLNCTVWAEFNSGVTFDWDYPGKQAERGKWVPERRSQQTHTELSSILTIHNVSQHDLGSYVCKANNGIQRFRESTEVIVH


Legend:
Assay in all cases: receptor-Fc IP
VEGFR-3-Fc = target: T1, VEGFR-3-Fc
Method: (§1) The binding assay procedure was identical to the immunoprecipitation using pentahistidine antibody described in Example 2, apart from the composition of the immunoprecipitation (IP) mixes. The IP mixes used for the receptor binding analysis were as follows: For VEGFR-1 binding assays, the IP mix was phosphate buffered saline (PBS) containing 1.5% BSA, 0.06% Tween 20, 3 μg/ml heparin and 400 ng/ml VEGFR-1-Fc fusion protein (100 μl of this IP mix was added to 200 μl of sample supernatant); for VEGFR-2 binding assays, the IP mix was 82% conditioned cell supernatant from 293T cells transiently expressing VEGFR-2-Fc fusion protein in mixture with 18% of a PBS solution that contained 5% BSA, 0.2% Tween 20, and 10 μg/ml heparin (250 μl of IP mix was added to 200 μl of sample supernatant); and for VEGFR-3 binding assays, the IP mix was 82% conditioned cell supernatant from 293T cells transiently expressing VEGFR-3-Fc fusion protein, 18% of PBS containing 5% BSA, 0.2% Tween 20, and 10 μg/ml heparin (250 μl of IP mix was added to 200 μl of sample supernatant).

VEGFR-1-Fc = target: T2, VEGFR-1-Fc (UniProt P17948 27-338)
T2 construct: domain: first three Ig domains; expressed in Drosophila S2 cells, purified on Protein A sepharose; also called VEGFR-1-Fc fusion protein; not shown: Fc fragment from the Signal-pIgPlus vector
Method: as §1

VEGFR-2-Fc = target: T3, VEGFR-2-Fc (UniProt P35968 20-322)
T3 construct: domain: first 3 Ig domains; conditioned supernatant of 293T cells; also called VEGFR-2-Fc fusion protein; not shown: Fc fragment of the pIg vector
Method: as §1

T3 sequence (P35968 20-322): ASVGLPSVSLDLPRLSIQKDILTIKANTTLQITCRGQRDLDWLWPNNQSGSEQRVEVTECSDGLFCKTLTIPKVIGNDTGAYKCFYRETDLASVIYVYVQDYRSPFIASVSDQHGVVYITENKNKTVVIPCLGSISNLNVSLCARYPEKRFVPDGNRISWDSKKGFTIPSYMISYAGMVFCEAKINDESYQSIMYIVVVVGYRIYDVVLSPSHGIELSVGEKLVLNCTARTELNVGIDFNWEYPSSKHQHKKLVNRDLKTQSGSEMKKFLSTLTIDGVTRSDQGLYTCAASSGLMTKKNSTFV
T2 sequence (P17948 27-338): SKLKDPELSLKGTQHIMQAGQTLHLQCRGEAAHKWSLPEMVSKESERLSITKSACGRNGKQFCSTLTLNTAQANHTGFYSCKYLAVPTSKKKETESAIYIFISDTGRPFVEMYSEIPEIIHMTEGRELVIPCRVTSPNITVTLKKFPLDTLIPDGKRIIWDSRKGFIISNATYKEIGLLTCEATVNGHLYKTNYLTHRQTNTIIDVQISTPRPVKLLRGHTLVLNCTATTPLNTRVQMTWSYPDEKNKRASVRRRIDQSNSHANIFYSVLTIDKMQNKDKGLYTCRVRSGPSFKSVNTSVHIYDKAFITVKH

binding result (VEGFR-3-Fc) | binding result (VEGFR-1-Fc) | binding result (VEGFR-2-Fc) | Binder
no binding | no binding | no binding | 73-16 (ligand) GQNHHEVVKSIDNEWRKTQCMPREVCIDVGKEYPDEIEYIFKPPCVSVYRCGGCCNSEGLQCMNTSTSYLSKTLFEITVPLSQGPKPVTISFANHTSCRCMSKLD
no binding | no binding | binds | 33-1 (ligand) GQNHHEVVKSIDNEWRKTQCMPIETLVDIFQEYPDEIEYIFKPPCVSVYRCGGCCNDEGLECVPTEESNITMQIMRIKPHQGQHIGEMSFLQHNKCECRPKKD
no binding | no binding | binds | 33-3 (ligand) GQNHHEVVKSIDNEWRKTQCMPIETLVDIFQEYPDEIEYIFKPPCVSVYRCGGCCNSEGLQCVPTEESNITMQIMRIKPHQGQHIGEMSFLQHNKCECRPKKD
no binding | no binding | no binding | 73-9 (ligand) GQNHHEVVKSIDNEWRKTQCMPREVCIDVGKEYPDEIEYIFKPPCVSVYRCGGCCNDEGLECVPTEESNITMQIMRITVPLSQGPKPVTISFLQHNKCECRPKKD
no binding | no binding | binds | 33-9 (ligand) GQNHHEVVKSIDNEWRKTQCMPIETLVDIFQEYPDEIEYIFKPPCVSVYRCGGCCNDEGLECVPTEESNITMQIMRITVPLSQGPKPVTISFLQHNKCECRPKKD
no binding | no binding | no binding | 74-9 (ligand) GQNHHEVVKSIDNEWRKTQCMPREVCIDVGKEFGVATNTFFKPSCVPLMRCGGCCNDEGLECVPTEESNITMQIMRITVPLSQGPKPVTISFLQHNKCECRPKKD
no binding | no binding | no binding | 73-11 (ligand) GQNHHEVVKSIDNEWRKTQCMPREVCIDVGKEYPDEIEYIFKPPCVSVYRCGGCCNSEGLQCVPTEESNITMQIMRITVPLSQGPKPVTISFLQHNKCECRPKKD
no binding | no binding | no binding | 21-9 (ligand) AHYNTEILKSIDNEWRKTQCMPREVCIDVGKEYPDEIEYIFKPSCVPLMRCGGCCNDEGLECVPTEESNITMQIMRITVPLSQGPKPVTISFLQHNKCECRPKKD
no binding | no binding | no binding | 73-13 (ligand) GQNHHEVVKSIDNEWRKTQCMPREVCIDVGKEYPDEIEYIFKPPCVSVYRCGGCCNDEGLECVPTEESNITMQIMRITVPLSQGPKPVTISFANHTSCRCMSKLD
no binding | no binding | no binding | 72-11 (ligand) GQNHHEVVKSIDNEWRKTQCMPREVCIDVGKEFGVATNTFFKPPCVSVYRCGGCCNSEGLQCVPTEESNITMQIMRITVPLSQGPKPVTISFLQHNKCECRPKKD
no binding | no binding | no binding | 23-9 (ligand) AHYNTEILKSIDNEWRKTQCMPREVCIDVGKEYPDEIEYIFKPPCVSVYRCGGCCNDEGLECVPTEESNITMQIMRITVPLSQGPKPVTISFLQHNKCECRPKKD
no binding | no binding | no binding | 41-3 (ligand) AHYNTEILKFMDVYQRSYCHPREVCIDVGKEYPDEIEYIFKPSCVPLMRCGGCCNSEGLQCVPTEESNITMQIMRIKPHQGQHIGEMSFLQHNKCECRPKKD
no binding | no binding | binds | 63-3 (ligand) GQNHHEVVKFMDVYQRSYCHPREVCIDVGKEYPDEIEYIFKPPCVSVYRCGGCCNSEGLQCVPTEESNITMQIMRIKPHQGQHIGEMSFLQHNKCECRPKKD
no binding | no binding | no binding | 43-3 (ligand) AHYNTEILKFMDVYQRSYCHPREVCIDVGKEYPDEIEYIFKPPCVSVYRCGGCCNSEGLQCVPTEESNITMQIMRIKPHQGQHIGEMSFLQHNKCECRPKKD
no binding | binds | binds | 81-1 (ligand) AHYNTEILKFMDVYQRSYCHPIETLVDIFQEYPDEIEYIFKPSCVPLMRCGGCCNDEGLECVPTEESNITMQIMRIKPHQGQHIGEMSFLQHNKCECRPKKD
no binding | binds | no binding | 61-1 (ligand) GQNHHEVVKFMDVYQRSYCHPREVCIDVGKEYPDEIEYIFKPSCVPLMRCGGCCNDEGLECVPTEESNITMQIMRIKPHQGQHIGEMSFLQHNKCECRPKKD
no binding | no binding | no binding | 41-5 (ligand) AHYNTEILKFMDVYQRSYCHPREVCIDVGKEYPDEIEYIFKPSCVPLMRCGGCCNDEGLECVPTEESNITMQIMRIKPHQGQHIGEMSFANHTSCRCMSKLD
no binding | binds | no binding | 43-1 (ligand) AHYNTEILKFMDVYQRSYCHPREVCIDVGKEYPDEIEYIFKPPCVSVYRCGGCCNDEGLECVPTEESNITMQIMRIKPHQGQHIGEMSFLQHNKCECRPKKD
no binding | no binding | no binding | 42-3 (ligand) AHYNTEILKFMDVYQRSYCHPREVCIDVGKEFGVATNTFFKPPCVSVYRCGGCCNSEGLQCVPTEESNITMQIMRIKPHQGQHIGEMSFLQHNKCECRPKKD
no binding | no binding | no binding | 43-7 (ligand) AHYNTEILKFMDVYQRSYCHPREVCIDVGKEYPDEIEYIFKPPCVSVYRCGGCCNSEGLQCVPTEESNITMQIMRIKPHQGQHIGEMSFANHTSCRCMSKLD
no binding | binds | no binding | 41-1 (ligand) AHYNTEILKFMDVYQRSYCHPREVCIDVGKEYPDEIEYIFKPSCVPLMRCGGCCNDEGLECVPTEESNITMQIMRIKPHQGQHIGEMSFLQHNKCECRPKKD
no binding | no binding | no binding | 44-3 (ligand) AHYNTEILKFMDVYQRSYCHPREVCIDVGKEFGVATNTFFKPSCVPLMRCGGCCNSEGLQCVPTEESNITMQIMRIKPHQGQHIGEMSFLQHNKCECRPKKD
no binding | binds | no binding | 61-3 (ligand) GQNHHEVVKFMDVYQRSYCHPREVCIDVGKEYPDEIEYIFKPSCVPLMRCGGCCNSEGLQCVPTEESNITMQIMRIKPHQGQHIGEMSFLQHNKCECRPKKD
no binding | no binding | no binding | 44-1 (ligand) AHYNTEILKFMDVYQRSYCHPREVCIDVGKEFGVATNTFFKPSCVPLMRCGGCCNDEGLECVPTEESNITMQIMRIKPHQGQHIGEMSFLQHNKCECRPKKD
